Reference: patent publication US20210079088A1 (published 2021)

T1: soluble human IL-4Rα (sIL-4Rα; PEPRO TECH, Catalog Number: 200-04R) (human, UniProt P24394 26-232)
T1 construct: Bought protein; also called shIL-4Rα; soluble hIL-4 Rα
T1 sequence: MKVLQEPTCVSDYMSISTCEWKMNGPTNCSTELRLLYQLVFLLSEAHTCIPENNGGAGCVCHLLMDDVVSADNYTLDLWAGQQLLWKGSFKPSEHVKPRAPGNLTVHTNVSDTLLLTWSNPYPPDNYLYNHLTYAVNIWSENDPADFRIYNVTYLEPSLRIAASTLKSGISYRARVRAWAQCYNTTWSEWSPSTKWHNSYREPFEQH


What follows are binders tested against T1, soluble human IL-4Rα (sIL-4Rα; PEPRO …) (assay: ELISA, coated sIL-4Rα, culture supernatant).
Description: Sample to be tested: For each antibody of the present invention, 10 μl and 2 μl of the culture supernatant of Expi293 cells expressing the antibody after transient transfection (the medium was Expi293 Expression Medium, Invitrogen, Catalog Number: A1435102; suspension culture was performed for 4 days at 100 rpm in a 8% CO2 incubator) were respectively added to 990 μl and 998 μl of PBS to prepare antibody samples to be tested of 1:100 and 1:500 dilutions.
100 μl of 100 μg/ml sIL-4Rα solution was added to 9.90 ml of PBS, mixed up and down, and then an antigen coating buffer of 1.0 μg/ml was obtained. The prepared antigen coating buffer was added to a 96-well ELISA plate (Corning) with a volume of 100 μl per well. The 96-well ELISA plate was incubated overnight in a refrigerator at 4° C. On the next day, the solution therein was discarded, and PBS containing 2% BSA was added to the 96-well ELISA plate row by row with a volume of 300 μl per well. The 96-well ELISA plate was incubated for 2 hours in a refrigerator at 4° C. Then the PBS containing 2% BSA was discarded and the plate was washed 3 times with PBST. Diluted antibodies to be tested were sequentially added to the corresponding wells, while the normal cell culture supernatants, as negative control samples, were added too. Three duplicate wells were made for each sample with a volume of 100 μl per well. The ELISA plate was wrapped with preservative film (or covered) and incubated for 1 h at 10° C. in a constant temperature incubator. Subsequently, the 96-well ELISA plate was taken out, and the solution therein was discarded. After washing with PBST for 3 times, TMB solution (Solarbio, Catalog Number: PR1200) was added to the 96-well ELISA plate row by row with a volume of 100 μl per well. The 96-well ELISA plate was placed at room temperature for 5 minutes, and 2 M H2SO4 solution was added in immediately to terminate the reaction. The 96-well ELISA plate was placed in flexstation 3 (Molecular Devices), the values of OD450 were read, and the data were collected, calculated and analyzed. Results were expressed relative to the affinity of control antibody 1.

OD450/OD450 Control antibody 1	Binder
0.22 ratio to control antibody 1	L1000H1035 (antibody, V domains shown) VH: EVQLVQSGGGLVHPGGSLRLSCAGSGFTFSRNAMHWVRQAPGKGLEWVSGIGTGGATNYADSVKGRFTISRDNAKNSLYLQMNSLRAEDMAVYYCARGRYYFDYWGQGTLVTVSS VL: not shown
0.33 ratio to control antibody 1	L1000H1028 (antibody, V domains shown) VH: EVQLVQSGGGLVQPGGSLRLSCAASGFTFSRNAMFWVRQAPGKGLEWVSGIGTGGATSYADSVKGRFTISRDNAKNSLYLQMNSLRAEDTAVYYCARGRYYFPWWGQGTLVTVSS VL: not shown
0.18 ratio to control antibody 1	L1000H1012 (antibody, V domains shown) VH: EVQLVQSGGGLVHPGGSLRLSCAGSGFTFSRNAMFWVRQAPGKGLEWVSGIGTGGATSYADSVKGRFTISRDNAKNSLYLQMNSLRAEDTAVYYCARGRYYFDYWGQGTLVTVSS VL: not shown
-0.01 ratio to control antibody 1	L1000H1037 (antibody, V domains shown) VH: EVQLVQSGGGLVHPGGSLRLSCAGSGFTFSRNAMFWVRQAPGKGLEWVSGIGTGGATNYADSVKGRFTISRDEAKNSLYLQMNSLRAEDMAVYYCARGRYYFDYWGQGTLVTVSS VL: not shown
1.14 ratio to control antibody 1	L1000H1031 (antibody, V domains shown) VH: EVQLVESGGGLVQPGGSLRLSCAASGFTFSRNAMFWVRQAPGKGLEWVSGIGTGGATSYADSVKGRFTISRDNAKNSLYLQMNSLRAEDTAVYYCARGRYYFDYWGQGTLVTVSS VL: not shown
0.38 ratio to control antibody 1	L1000H1013 (antibody, V domains shown) VH: EVQLVESGGGLVHPGGSLRLSCAASGFTFSRNAMFWVRQAPGKGLEWVSGIGTGGATNYADSVKGRFTISRDNAKNSLYLQMNSLRAEDMAVYYCARGRYYFDYWGQGTLVTVSS VL: not shown
0.21 ratio to control antibody 1	L1000H1008 (antibody, V domains shown) VH: EVQLVQSGGGLVHPGGSLRLSCAGSGFTFSRNAMFWVRQAPGKGLEWVSGIGTGGATNYADSVKGRFTISRDNAKNSLYLQMNSLRAEDTAVYYCARGRYYFDYWGQGTLVTVSS VL: not shown
0.56 ratio to control antibody 1	L1000H1009 (antibody, V domains shown) VH: EVQLVESGGGLVHPGGSLRLSCAGSGFTFSRNAMFWVRQAPGKGLEWVSGIGTGGATNYADSVKGRFTISRDNAKNSLYLQMNSLRAEDMAVYYCARGRYYFDYWGQGTLVTVSS VL: not shown
0.11 ratio to control antibody 1	L1000H1026 (antibody, V domains shown) VH: EVQLVESGGGLVQPGGSLRLSCAGSGFTFSRNAMFWVRQAPGKGLEWVSGIGTGGATSYADSVKGRFTISRDNAKNSLYLQMNSLRAEDTAVYYCARGRYYFPWWGQGTLVTVSS VL: not shown
0.35 ratio to control antibody 1	L1000H1021 (antibody, V domains shown) VH: EVQLVQSGGGLVHPGGSLRLSCAGSGFTFSRNAMFWVRQAPGKGLEWVSGIGTGGATNYADSVKGRFTISRDNAKNSLYLQMNSLRAEDTAVYYCARGRYYFPWWGQGTLVTVSS VL: not shown
0.44 ratio to control antibody 1	L1000H1027 (antibody, V domains shown) VH: EVQLVESGGGLVHPGGSLRLSCAASGFTFSRNAMFWVRQAPGKGLEWVSGIGTGGATSYADSVKGRFTISRDNAKNSLYLQMNSLRAEDTAVYYCARGRYYFPWWGQGTLVTVSS VL: not shown
0.65 ratio to control antibody 1	L1000H1015 (antibody, V domains shown) VH: EVQLVESGGGLVQPGGSLRLSCAGSGFTFSRNAMFWVRQAPGKGLEWVSGIGTGGATNYADSVKGRFTISRDNAKNSLYLQMNSLRAEDMAVYYCARGRYYFDYWGQGTLVTVSS VL: not shown
0.18 ratio to control antibody 1	L1000H1022 (antibody, V domains shown) VH: EVQLVQSGGGLVHPGGSLRLSCAGSGFTFSRNAMFWVRQAPGKGLEWVSGIGTGGATSYADSVKGRFTISRDNAKNSLYLQMNSLRAEDTAVYYCARGRYYFPWWGQGTLVTVSS VL: not shown
0.53 ratio to control antibody 1	L1000H1032 (antibody, V domains shown) VH: EVQLVESGGGLVQPGGSLRLSCAASGFTFSRNAMFWVRQAPGKGLEWVSGIGTGGATNYADSVKGRFTISRDNAKNSLYLQMNSLRAEDMAVYYCARGRYYFPWWGQGTLVTVSS VL: not shown
0.8 ratio to control antibody 1	L1000H1029 (antibody, V domains shown) VH: EVQLVESGGGLVQPGGSLRLSCAASGFTFSRNAMFWVRQAPGKGLEWVSGIGTGGATSYADSVKGRFTISRDNAKNSLYLQMNSLRAEDMAVYYCARGRYYFPWWGQGTLVTVSS VL: not shown
0.2 ratio to control antibody 1	L1000H1030 (antibody, V domains shown) VH: EVQLVESGGGLVQPGGSLRLSCAASGFTFSRNAMFWVRQAPGKGLEWVSGIGTGGATNYADSVKGRFTISRDNAKNSLYLQMNSLRAEDTAVYYCARGRYYFPWWGQGTLVTVSS VL: not shown

The next lines start with the binder.

Binder	OD450/OD450 Control antibody 1
L1000H1007 (antibody, V domains shown) VH: EVQLVQSGGGLVHPGGSLRLSCAGSGFTFSRNAMFWVRQAPGKGLEWVSGIGTGGATSYADSVKGRFTISRDNAKNSLYLQMNSLRAEDMAVYYCARGRYYFDYWGQGTLVTVSS VL: not shown	0.37 ratio to control antibody 1
L1000H1036 (antibody, V domains shown) VH: EVQLVQSGGGLVHPGGSLRLSCAGSGFTFSRNAMFWVRQAPGEGLEWVSGIGTGGATNYADSVKGRFTISRDNAKNSLYLQMNSLRAEDMAVYYCARGRYYFDYWGQGTLVTVSS VL: not shown	0.1 ratio to control antibody 1
L1000H1020 (antibody, V domains shown) VH: EVQLVQSGGGLVHPGGSLRLSCAGSGFTFSRNAMFWVRQAPGKGLEWVSGIGTGGATSYADSVKGRFTISRDNAKNSLYLQMNSLRAEDMAVYYCARGRYYFPWWGQGTLVTVSS VL: not shown	0.23 ratio to control antibody 1
L1000H1025 (antibody, V domains shown) VH: EVQLVQSGGGLVHPGGSLRLSCAASGFTFSRNAMFWVRQAPGKGLEWVSGIGTGGATSYADSVKGRFTISRDNAKNSLYLQMNSLRAEDTAVYYCARGRYYFPWWGQGTLVTVSS VL: not shown	0.21 ratio to control antibody 1
L1000H1023 (antibody, V domains shown) VH: EVQLVESGGGLVHPGGSLRLSCAGSGFTFSRNAMFWVRQAPGKGLEWVSGIGTGGATSYADSVKGRFTISRDNAKNSLYLQMNSLRAEDTAVYYCARGRYYFPWWGQGTLVTVSS VL: not shown	0.63 ratio to control antibody 1
L1001H1000 (antibody, V domains shown) VH: EVQLVQSGGGLVHPGGSLRLSCAGSGFTFSRNAMFWVRQAPGKGLEWVSGIGTGGATNYADSVKGRFTISRDNAKNSLYLQMNSLRAEDMAVYYCARGRYYFDYWGQGTLVTVSS VL: EIVLTQSPGTLSLSPGERATLSCRASQSVSNSYLAWYQQKPGQAPRLLIYGASSRAPGIPDRFSGSGSGTDFTLTISRLEPEDFAVYYCQQYDHSAGWTFGQGTKVEIK	1.56 ratio to control antibody 1
L1000H1024 (antibody, V domains shown) VH: EVQLVQSGGGLVQPGGSLRLSCAGSGFTFSRNAMFWVRQAPGKGLEWVSGIGTGGATSYADSVKGRFTISRDNAKNSLYLQMNSLRAEDTAVYYCARGRYYFPWWGQGTLVTVSS VL: not shown	0.26 ratio to control antibody 1
L1000H1016 (antibody, V domains shown) VH: EVQLVQSGGGLVHPGGSLRLSCAGSGFTFSRNAMFWVRQAPGKGLEWVSGIGTGGATNYADSVKGRFTISRDNAKNSLYLQMNSLRAEDMAVYYCARGRYYFPWWGQGTLVTVSS VL: not shown	0.61 ratio to control antibody 1
L1000H1001 (antibody, V domains shown) VH: EVQLVESGGGLVQPGGSLRLSCAASGFTFSRNAMFWVRQAPGKGLEWVSGIGTGGATSYADSVKGRFTISRDNAKNSLYLQMNSLRAEDTAVYYCARGRYYFPWWGQGTLVTVSS VL: not shown	0.7 ratio to control antibody 1
L1000H1010 (antibody, V domains shown) VH: EVQLVQSGGGLVQPGGSLRLSCAGSGFTFSRNAMFWVRQAPGKGLEWVSGIGTGGATNYADSVKGRFTISRDNAKNSLYLQMNSLRAEDMAVYYCARGRYYFDYWGQGTLVTVSS VL: not shown	0.11 ratio to control antibody 1
L1000H1014 (antibody, V domains shown) VH: EVQLVQSGGGLVQPGGSLRLSCAASGFTFSRNAMFWVRQAPGKGLEWVSGIGTGGATNYADSVKGRFTISRDNAKNSLYLQMNSLRAEDMAVYYCARGRYYFDYWGQGTLVTVSS VL: not shown	1.06 ratio to control antibody 1
